The values below come from PMC7512017.

Where “and” joins values, the source holds several entries; their conditions need not be identical. Equal values may be shown once.

Assay [1] concerns the target apo-CCP2 (C-terminal domain-like carotenoid protein 2 from Tolypothrix sp. PCC 7601, without carotenoid) (Tolypothrix sp. PCC 7601). The experiment in a line: SEC; analytical SEC on a Superdex 75 column; masses estimated with protein molecular weight standards.
The target is the same in assay [2]. In words: SEC-MALS + other: SEC-SAXS; SEC-SAXS-MALS, Shodex KW802.5 column, 10 mM Na-phosphate pH 7.0, 100 mM NaCl, 20 °C; samples at 5 mg/mL (legend: apo tetramer sample 10 mg/mL); also run with reductant (5 mM TCEP).
The target of assay [3] is holo-CCP2 (C-terminal domain-like carotenoid protein 2 from Tolypothrix sp. PCC 7601, with bound canthaxanthin) (Tolypothrix sp. PCC 7601). The experiment in a line: SEC; analytical SEC on a Superdex 75 column; masses estimated with protein molecular weight standards.
Assay [4] has the same target. The experiment in a line: SEC-MALS + other: SEC-SAXS; SEC-SAXS-MALS, Shodex KW802.5 column, 10 mM Na-phosphate pH 7.0, 100 mM NaCl, 20 °C; samples at 5 mg/mL (legend: apo tetramer sample 10 mg/mL); also run with reductant (5 mM TCEP). In general terms: SEC sorts molecules by how far they enter the pores of the column.

Broadly, the stoichiometry N is the number of molecules, sites or subunits per partner or assembly. For “apo-CCP2 (C-terminal domain-like carotenoid protein 2 from Tolypothrix sp. PCC 7601, without carotenoid) (natural protein)”, the stoichiometry N in assay [1] was 2 and 4; in assay [2], 2 and 3 and 4.

Take “holo-CCP2 (C-terminal domain-like carotenoid protein 2 from Tolypothrix sp. PCC 7601, with bound canthaxanthin) (natural protein)”: the stoichiometry N is 2 and 4 in assay [3]; 2 and 4 in assay [4].
